One block for each binder: values may come before it.
What was measured:
[1] = target: the molecule itself; experiment: MST; control ChlD-ChlD titration (Supplementary Figure S3); monomer to dimer
[2] = target: T1, ChlH (purified recombinant, Synechocystis) (Synechocystis sp. PCC 6803, UniProt P73020 1-1331, labelled with NHS-NT647 dye in the MST experiments; activated with EDC/NHS in the cross-linking experiment); experiment: MST; ChlD (or variant) titrated into 20 nM NT647-labelled ChlH; 50 mM Tris/NaOH, 0.2% Pluronic F-127, pH 7.8, without Mg2+; single-site model; Kd is an empirical description over all oligomeric states of ChlD; conditions: both partners purified
T1 construct: Magnesium chelatase subunit ChlH (~150 kDa), Synechocystis sp; PCC 6803; also called labelled ChlH
T1 sequence (looked up): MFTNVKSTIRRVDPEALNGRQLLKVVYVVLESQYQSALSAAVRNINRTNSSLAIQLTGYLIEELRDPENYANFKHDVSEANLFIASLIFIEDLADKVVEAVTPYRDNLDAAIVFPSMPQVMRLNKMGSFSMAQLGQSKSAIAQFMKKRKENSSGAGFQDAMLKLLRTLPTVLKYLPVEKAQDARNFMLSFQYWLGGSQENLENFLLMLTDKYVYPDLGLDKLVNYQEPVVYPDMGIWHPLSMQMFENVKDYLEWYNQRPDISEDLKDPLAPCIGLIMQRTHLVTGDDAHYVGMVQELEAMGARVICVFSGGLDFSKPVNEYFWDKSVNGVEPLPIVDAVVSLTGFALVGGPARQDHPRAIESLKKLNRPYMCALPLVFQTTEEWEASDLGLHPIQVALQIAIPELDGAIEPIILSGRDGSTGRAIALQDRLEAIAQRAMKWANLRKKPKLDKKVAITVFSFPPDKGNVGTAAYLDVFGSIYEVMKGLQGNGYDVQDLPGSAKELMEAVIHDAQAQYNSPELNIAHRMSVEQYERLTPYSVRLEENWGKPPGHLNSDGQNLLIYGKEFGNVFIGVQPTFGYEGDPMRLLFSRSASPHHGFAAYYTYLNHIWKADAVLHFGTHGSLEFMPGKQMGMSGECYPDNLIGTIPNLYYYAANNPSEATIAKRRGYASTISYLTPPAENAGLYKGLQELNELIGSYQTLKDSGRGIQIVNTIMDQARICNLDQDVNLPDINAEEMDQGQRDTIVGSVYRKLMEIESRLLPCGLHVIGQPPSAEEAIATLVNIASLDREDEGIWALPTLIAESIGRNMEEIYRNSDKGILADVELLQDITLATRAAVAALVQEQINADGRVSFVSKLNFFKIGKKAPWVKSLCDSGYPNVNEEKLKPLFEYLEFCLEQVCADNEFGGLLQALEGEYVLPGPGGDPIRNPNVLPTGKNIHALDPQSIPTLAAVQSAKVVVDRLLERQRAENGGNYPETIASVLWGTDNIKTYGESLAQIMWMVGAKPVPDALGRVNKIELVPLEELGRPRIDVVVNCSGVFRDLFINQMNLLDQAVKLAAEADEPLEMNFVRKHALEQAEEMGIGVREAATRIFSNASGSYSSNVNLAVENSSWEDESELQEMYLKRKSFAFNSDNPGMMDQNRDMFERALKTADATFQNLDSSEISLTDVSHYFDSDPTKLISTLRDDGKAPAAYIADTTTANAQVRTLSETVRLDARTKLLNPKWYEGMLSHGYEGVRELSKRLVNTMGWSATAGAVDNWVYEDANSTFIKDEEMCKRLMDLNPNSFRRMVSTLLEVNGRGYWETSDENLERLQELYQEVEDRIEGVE

[3] = target: T1, ChlH (purified recombinant, …); experiment: MST; ChlD (or variant) titrated into 20 nM NT647-labelled ChlH; 50 mM Tris/NaOH, 0.2% Pluronic F-127, pH 7.8, with 10 mM Mg2+; single-site model; Kd is an empirical description over all oligomeric states of ChlD; conditions: both partners purified
[4] = target: T1, ChlH (purified recombinant, …); experiment: cell-based or functional assay

B1: ChlD wild type (purified recombinant, Synechocystis) (natural protein)
chain: not shown
modifications: labelled with NHS-NT647 dye where it was the labelled partner in MST (ChlD-ChlD titration)
notes: Magnesium chelatase subunit ChlD (~75 kDa), Synechocystis sp; PCC 6803; also called WT ChlD
Kd [1]: 296 nM
stoichiometry N [1]: 2
Kd [2]: 2100 nM
Kd [3]: 331 nM

B2: ChlD S554R (natural protein)
chain: not shown
notes: Magnesium chelatase subunit ChlD, Synechocystis sp; PCC 6803, MIDAS motif point mutant; also called type II MIDAS mutant; source: E. coli, purified as wild type
magnesium chelatase activity, rate relative to the wild-type protein [4]: ~5%
Kd [2]: 988 nM
Kd [3]: 481 nM

B4: ChlD D487E (natural protein)
chain: not shown
notes: Magnesium chelatase subunit ChlD, Synechocystis sp; PCC 6803, MIDAS motif point mutant; also called MIDAS mutant; source: E. coli, purified as wild type
Kd [2]: 1490 nM
Kd [3]: 842 nM

B6: ChlD QuinE (E510Q/E513Q/E600T/E603P/E605T) (natural protein)
chain: not shown
notes: Magnesium chelatase subunit ChlD, Synechocystis sp; also called quintuplet mutant of ChlD; source: E. coli, purified (as described previously)
Kd [2]: 512 nM
Kd [3]: 339 nM

Results, then the binder that gave them:

Kd [2]: 3210 nM
Kd [3]: 1980 nM
B3: ChlD S489A (natural protein)
chain: not shown
notes: as for B4

Kd [2]: 351 nM
Kd [3]: 147 nM
B5: ChlD S491A (natural protein)
chain: not shown
notes: as for B4

Kd [2]: 5930 nM
Kd [3]: 14600 nM
B7: ChlD truncation A (AAA+ domain alone) (domain or fragment)
chain: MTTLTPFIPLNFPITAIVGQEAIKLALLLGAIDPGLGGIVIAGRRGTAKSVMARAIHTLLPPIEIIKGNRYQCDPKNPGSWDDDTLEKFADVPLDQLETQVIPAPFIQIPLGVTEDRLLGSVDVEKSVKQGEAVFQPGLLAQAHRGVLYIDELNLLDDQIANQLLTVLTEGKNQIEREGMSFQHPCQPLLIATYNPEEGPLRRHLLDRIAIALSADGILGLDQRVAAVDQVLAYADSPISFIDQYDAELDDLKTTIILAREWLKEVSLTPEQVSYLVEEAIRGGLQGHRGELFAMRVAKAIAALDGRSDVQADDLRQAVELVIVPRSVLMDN

Kd [2]: 6760 nM
Kd [3]: 10500 nM
B8: ChlD truncation B (AAA+ domain with the polyproline region) (domain or fragment)
chain: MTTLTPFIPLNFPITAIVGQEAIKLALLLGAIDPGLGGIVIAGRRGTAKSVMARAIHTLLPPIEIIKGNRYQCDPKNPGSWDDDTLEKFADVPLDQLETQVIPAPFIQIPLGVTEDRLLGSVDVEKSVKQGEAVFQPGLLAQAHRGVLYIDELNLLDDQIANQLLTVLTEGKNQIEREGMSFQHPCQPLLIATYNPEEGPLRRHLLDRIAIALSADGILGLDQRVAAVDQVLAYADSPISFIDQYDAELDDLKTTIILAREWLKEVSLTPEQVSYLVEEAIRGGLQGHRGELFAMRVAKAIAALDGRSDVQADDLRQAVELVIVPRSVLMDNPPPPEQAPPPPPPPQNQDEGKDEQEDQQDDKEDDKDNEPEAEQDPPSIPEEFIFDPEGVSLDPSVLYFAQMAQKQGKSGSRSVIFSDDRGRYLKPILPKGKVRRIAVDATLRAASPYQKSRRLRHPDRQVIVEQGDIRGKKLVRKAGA

— publication PMC6604950, “The ChlD subunit links the motor and porphyrin binding subunits of magnesium chelatase” (Biochemical Journal, 2019)
